Experimental findings from patent publication US20080248043A1 (Amgen, published 2008) are described below.

For assay [1], the target named is S1-Ig (12-672) (SARS-CoV; human, UniProt P59594 12-672). Description: ELISA, coated S1-IgG 12-672. On the technique in general: In an ELISA, binding on a coated surface is turned into a signal by an enzyme label.
Assay [2] addresses S1-Ig (261-672) (SARS-CoV; human, UniProt P59594 261-672). Description: ELISA, coated S1-IgG 261-672.
Assay [3] deals with T1, S1-Ig (318-510) (SARS-CoV; human, UniProt P59594 318-510). Kind of assay: ELISA, coated S1-IgG 318-510.
The target of assay [4] is S1-Ig (12-510) (SARS-CoV; human, UniProt P59594 12-510). Description: ELISA, coated S1-IgG 12-510.
Assay [5] addresses T1, S1-Ig (318-510). Description: ELISA on coated S1-Ig fragment.

B1: 3C7 (antibody, V domains shown)
VH: QVQLVESGGGVVQPGTSLRLSCAASGFTFSSYGIHWVRQAPGKGLEWVAVIWYDGSNKFYADSVKGRFTISRDNSKNTLYLQMNSLRAEDTAVYYCARDPLGYCSSTSCSYFDYWGQGTLVTVSS
VL: DIQMTQSPSSVSASVGDRVTITCRASQGISNWLAWYQQKPGKAPKLLIYAASSLQSGVPSRFSGSGSGTDFTLTIRSLQPEDFATYYCQQANNFPLTFGGGTKVEIK
With B1, the “Reactivity S1-IgG (ELISA OD)” value in assay [1] came to 1.09 OD; in assay [2], 0.357 OD; in assay [3], 2.19 OD; in assay [4], 1.42 OD.

B2: 6B1 (antibody, V domains shown)
VH: QVQLVESGGGVVQPGTSLRLSCAASGFTFSSYGIHWVRQAPGKGLEWVAVIWYDGSNKFHADSVKGRFTISRDNSKNTLYLQMNSLRAEDTAVYYCARDPLGYCSSTSCSYFDYWGQGTLVTVSS
VL: DIQMTQSPSSVSASVGDRVTITCRASQGISNWLAWYQQKPGKAPKLLIYAASSLQSGVPSRFSGSGSGTDFTLTISSLQPEDFATYYCQQANNFPLTFGGGTKVEIK
In the case of B2, the “Reactivity S1-IgG (ELISA OD)” value in assay [1] stood at 1.13 OD; in assay [2] it was 0.369 OD; in assay [3], 2.09 OD; in assay [4] it was 1.17 OD.

B3: 1B5 (antibody, V domains shown)
VH: QVQLVESGGGVVQPGRSLRLSCAASGFTFSSYGMHWVRQAPGKGLEWVAVIWYDGSNKYYADSVKGRFTISRDNSKNTLYLQMNSLRAEDTAVYYCARGDFYWFDPWGQGTLVTVSS
VL: DIQMTQSPSSLSASVGDRVTITCRASQGIRSDLGWYQQRPGKTPKRLIYAASSLQSGVPSRFSGSGSGTEFTLTISSLQPEDFATYYCQQYNSYPLTFGGGTKVEIK
B3: the “Reactivity S1-IgG (ELISA OD)” value in assay [1] was 0.463 OD; in assay [2], 0.11 OD; in assay [3], 0.191 OD; in assay [4], 1.29 OD. Also, the binding result in assay [5] is given as “no binding”.

B4: 5E4 (antibody, V domains shown)
VH: QVHLVQSGAEVKKPGASVKVSCKASGYTFTGYYVHWVRQAPGQGLEWMGWINPNSGGTNYAQKFQGRVTMTRDTSISTAYMELSRLRSDDTAVYFCAGGRYLDYWGQGTLVTVSS
VL: DIQMTQSPSSLSASVGDRVTITCRASQGIRNDLGWYQQKPGKAPKRLIYAASSLQSGVPSRFSGSGSGTEFTLTISSLQPEDFATYYCLQYNSYPITFGQGTRLEIK
As to B4, the “Reactivity S1-IgG (ELISA OD)” value stood at 0.735 OD in assay [1], 0.298 OD in assay [2], 2.27 OD in assay [3] and 1.2 OD in assay [4].

B5: 3H12 (antibody, V domains shown)
VH: QVQLQESGPGLVKPSETLSLTCTVSDGSISSFYWSWIRQPPGKGLEWIGYIYYSGSTNYNPSLKSRVTISVDTSKNQFSLKLSSVTAADTAVYYCARDYDILTGYSNYYGMDVWGQGTTVTVSS
VL: DIQMTQSPSSLSASVGDRVTITCRASQGIRNDLGWYQQKPGKAPKRLIYAASSLQSGVPSRFSGSGSGTEFTLTISSLQPEDFATYYCLQHNSYPFTFGPGTKLDIK
With B5, the “Reactivity S1-IgG (ELISA OD)” value in assay [1] stood at 0.185 OD; in assay [2], 0.09 OD; in assay [3], 1.3 OD; in assay [4], 0.318 OD.

B6: 4A10 (antibody, V domains shown)
VH: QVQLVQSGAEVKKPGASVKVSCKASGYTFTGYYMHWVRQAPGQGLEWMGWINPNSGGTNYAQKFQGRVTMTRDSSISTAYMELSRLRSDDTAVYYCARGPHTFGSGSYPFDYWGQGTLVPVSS
VL: DIQLTQSPSSLSASVGDRVTITCRASQGIRSDLGWYQQRPGKTPKRLIYAASSLQSGVPSRFSGSGSGTEFTLTISSLQPEDFATYYCQQYNSYPLTFGGGTKVEIK
Turning to B6, the “Reactivity S1-IgG (ELISA OD)” value in assay [1] amounted to 1.01 OD; in assay [2], 0.567 OD; in assay [3] it was 1.79 OD; in assay [4] it was 1.52 OD.

B7: 5A5 (antibody, V domains shown)
VH: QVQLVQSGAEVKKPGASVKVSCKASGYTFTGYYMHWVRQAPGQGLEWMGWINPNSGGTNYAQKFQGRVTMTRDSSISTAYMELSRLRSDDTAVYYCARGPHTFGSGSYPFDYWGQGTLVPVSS
VL: DIQLTQSPSSLSASVGDRVTITCRASQGIRSDLGWYQQRPGKTPKRLIYAASSLQSGVPSRFSGSGSGTEFTLTISSLQPEDFATYYCQQYNSYPLTFGGGTKVEIK
On to B7, for which the “Reactivity S1-IgG (ELISA OD)” value in assay [1] was 0.986 OD; in assay [2], 0.337 OD; in assay [3] it was 2.31 OD; in assay [4], 1.19 OD.

B8: 3F3 (antibody, V domains shown)
VH: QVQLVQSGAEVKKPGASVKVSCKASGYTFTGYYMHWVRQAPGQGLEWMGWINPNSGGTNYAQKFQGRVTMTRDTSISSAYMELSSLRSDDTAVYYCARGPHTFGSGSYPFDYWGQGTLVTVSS
VL: DIQMTQSPSSLSASVGDRVTITCRASQGIRSDLGWYQQRPGNTPKRLIYAASSLQSGVPSRFSGSGSGTEFTLTISSLQPEDFATYYCQQYNSYPLTFGGGTKVEIK
For B8, the “Reactivity S1-IgG (ELISA OD)” value was 1.07 OD in assay [1], 0.325 OD in assay [2], 1.89 OD in assay [3] and 1.35 OD in assay [4].

B9: 6C2 (antibody, V domains shown)
VH: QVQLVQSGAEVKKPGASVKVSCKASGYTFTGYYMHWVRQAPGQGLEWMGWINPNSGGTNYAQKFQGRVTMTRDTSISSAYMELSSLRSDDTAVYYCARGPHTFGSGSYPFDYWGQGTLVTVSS
VL: DIQMTQSPSSLSASVGDRVTITCRASQGIRSDLGWYQQRPGNTPKRLIYAASSLQSGVPSRFSGSGSGTEFTLTISSLQPEDFATYYCQQYNSYPLTFGGGTKVEIK
For B9, the “Reactivity S1-IgG (ELISA OD)” value in assay [1] came to 1 OD; in assay [2], 0.586 OD; in assay [3], 1.85 OD; in assay [4] it was 1.6 OD.

B10: 4E2 (antibody, V domains shown)
VH: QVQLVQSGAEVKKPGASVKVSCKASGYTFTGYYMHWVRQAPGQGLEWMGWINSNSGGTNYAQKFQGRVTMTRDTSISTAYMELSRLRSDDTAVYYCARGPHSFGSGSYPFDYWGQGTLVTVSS
VL: DIQMTQSPSSLSASVGDRVTITCRASQGIRSDLGWYQQRPGKTPKRLIYAASSLQSGVPSRFSGSGSGTEFTLTISSLQPEDFATYYCQQYNSYPLTFGGGTKVEIK
As to B10, the “Reactivity S1-IgG (ELISA OD)” value in assay [1] came out at 0.019 OD; in assay [2], 0.551 OD; in assay [3] it was 1.84 OD; in assay [4], 1.52 OD.

B11: 5D6 (antibody, V domains shown)
VH: QVQLVQSGAEVKKPGASVKVSCKASGYTFTSYGISWVRQAPGQGLEWMGWISAYNGNTNYAQKLQGRVTMTTDTSTNTAYMELRSLRSDDTAVYYCAVGRYLDYWGQGTLVTVSS
VL: DIQMTQSPSSLSASVGDRVTITCRASQDIRNDLGWYQQKPGKAPKRLIYAASSLQSGVPSRFSGSGSGTEFTLTISSLQPEDFATYYCLQYNSYPLTFGGGTKVEIK
As to B11, the “Reactivity S1-IgG (ELISA OD)” value in assay [1] is 0.747 OD; in assay [2], 0.355 OD; in assay [3] it was 2.12 OD; in assay [4] it was 1.31 OD.
